The values that follow come from patent US20040176301A1.

pIC50: −log10 of the molar value. Square brackets hold non-standard residues; d marks the D form. Phe(3-F) = N[C@@H](Cc1cccc(F)c1)C(=O)O; Phe(4-F) = N[C@@H](Cc1ccc(F)cc1)C(=O)O; Tic = O=C(O)[C@@H]1Cc2ccccc2CN1; Cha = N[C@@H](CC1CCCCC1)C(=O)O; Phe(ol) = N[C@H](CO)Cc1ccccc1; Phg = N[C@H](C(=O)O)c1ccccc1; Nle = CCCC[C@H](N)C(=O)O; Nva = CCC[C@H](N)C(=O)O; Abu = CC[C@H](N)C(=O)O

For orientation: pIC50 means −log10 of the IC50, conventionally taken in molar units.

Cyclin D1, sequence (P24385 whole entry): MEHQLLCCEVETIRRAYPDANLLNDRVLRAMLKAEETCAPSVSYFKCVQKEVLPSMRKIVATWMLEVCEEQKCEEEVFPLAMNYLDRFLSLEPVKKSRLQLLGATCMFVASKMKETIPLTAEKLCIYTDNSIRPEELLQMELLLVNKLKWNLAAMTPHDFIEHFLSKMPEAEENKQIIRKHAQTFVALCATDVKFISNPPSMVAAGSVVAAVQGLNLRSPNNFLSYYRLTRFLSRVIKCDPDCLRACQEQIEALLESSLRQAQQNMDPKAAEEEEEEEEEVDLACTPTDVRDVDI

One experiment has as its target Cyclin A (UniProt P20248). Description: competitive ELISA: cyclin A binding to immobilised biotinyl-Ahx-HAKRRLIF-NH2.
Conditions: not given
In turn, “H-Pya-Ala-Lys-Arg-Arg-Leu-Ile Phe-NH2 (peptide)” showed a Relative activity, Cyclin A Binding (relative to HAKRRLIF-NH2) of 0.2.

H-AAKRRLIF-NH2: the Relative activity, Cyclin A Binding (relative to HAKRRLIF-NH2) was 2.5.

The substance “H-Dab-Ala-Lys-Arg-Arg-Leu-Ile Phe-NH2 (peptide)” displayed a Relative activity, Cyclin A Binding (relative to HAKRRLIF-NH2) of 0.4.

For “H-Thi-Ala-Lys-Arg-Arg-Leu-Ile Phe-NH2 (peptide)”, the Relative activity, Cyclin A Binding (relative to HAKRRLIF-NH2) was 0.2.

H-FAKRRLIF-NH2: the Relative activity, Cyclin A Binding (relative to HAKRRLIF-NH2) was determined as 1.

“H-Hse-Ala-Lys-Arg-Arg-Leu-Ile Phe-NH2 (peptide)” yielded a Relative activity, Cyclin A Binding (relative to HAKRRLIF-NH2) of 2.

The target of a further experiment is Cyclin A (UniProt P20248). As to the kind of experiment: competitive cyclin A binding ELISA; competitor: immobilised biotinyl-Ahx-His-Ala-Lys-Arg-Arg-Leu-Ile-Phe-NH2 (SEQ ID No. 186). The conditions noted are these: scale: relative to H-His-Ala-Lys-Arg-Arg-Leu-Ile-Phe-NH2.
H-HAKRRLIL-NH2 had a Relative activity, Cyclin A Binding of less than 0.1.

For H-HAKRRL[Cha]F-NH2, the Relative activity, Cyclin A Binding is 0.5.

The substance H-HVKRRLIF-NH2 registered a Relative activity, Cyclin A Binding of 1.7.

H-HAKRNLIF-NH2 showed a Relative activity, Cyclin A Binding of less than 0.1.

“H-His-Ala-Lys-Arg-Arg-Leu-Ile-Dhp-OH (peptide)” came in with a Relative activity, Cyclin A Binding of 0.2.

“H-His-Ala-Lys-Arg-Arg-Leu-1Nap-Phe-NH2 (peptide)”: the Relative activity, Cyclin A Binding was 0.5.

In turn, “H-His-Ala-Lys-Cit-Arg-Leu-Ile-Phe-NH2 (peptide)” showed a Relative activity, Cyclin A Binding of 0.2.

On to H-HAKRALIF-NH2, for which the Relative activity, Cyclin A Binding was less than 0.1.

H-H[Nva]KRRLIF-NH2: the Relative activity, Cyclin A Binding was less than 0.1.

“H-His-Ala-Lys-Arg-Arg-Leu-Ile-1Nap-NH2 (peptide)”: the Relative activity, Cyclin A Binding is less than 0.1.

Substance H-HAKRR[Nle]IF-NH2 gave a Relative activity, Cyclin A Binding of less than 0.1.

Regarding H-HA[Abu]RRLIF-NH2, the Relative activity, Cyclin A Binding came to 0.2.

Take H-HAKRRIIF-NH2: the Relative activity, Cyclin A Binding was 0.2.

In turn, “H-His-Ser-Lys-Arg-Arg-Leu-Ile-D-Pse-OH (peptide)” yielded a Relative activity, Cyclin A Binding of less than 0.1.

H-HAKRRLLF-NH2: the Relative activity, Cyclin A Binding was determined as 0.6.

H-H[Abu]KRRLIF-NH2 returned a Relative activity, Cyclin A Binding of 1.3.

Consider “H-His-Ser-Lys-Arg-Arg-Leu-Ile-L-Pse-OH (peptide)”, for which the Relative activity, Cyclin A Binding was less than 0.1.

Consider “H-His-Bug-Lys-Arg-Arg-Leu-Ile-Phe-NH2 (peptide)”, for which the Relative activity, Cyclin A Binding was 1.2.

For H-HAKRRLI[Phe(4-F)]-NH2, the Relative activity, Cyclin A Binding was found to be 5.

Regarding H-HARRRLIF-NH2, the Relative activity, Cyclin A Binding came to 1.5.

Take H-HAKRRLIY-NH2: the Relative activity, Cyclin A Binding came out at 0.2.

H-HAKRRLVF-NH2 showed a Relative activity, Cyclin A Binding of 1.5.

H-HAKARLIF-NH2 showed a Relative activity, Cyclin A Binding of less than 0.1.

Turning to H-HAKRRLI[Tic]-NH2, the Relative activity, Cyclin A Binding was less than 0.1.

Substance “H-His-Ala-Lys-Arg-Aib-Leu-Ile-Phe-NH2 (peptide)” showed a Relative activity, Cyclin A Binding of less than 0.1.

H-HAKRRLFF-NH2 showed a Relative activity, Cyclin A Binding of 0.4.

On to H-HAKQRLIF-NH2, for which the Relative activity, Cyclin A Binding is less than 0.1.

Consider H-HAKRPLIF-NH2, for which the Relative activity, Cyclin A Binding was less than 0.1.

In turn, H-HAKRR[Cha]IF-NH2 had a Relative activity, Cyclin A Binding of less than 0.1.

The substance H-HAKRRLI[Phe(ol)] gave a Relative activity, Cyclin A Binding of 1.

Turning to H-HA[Nle]RRLIF-NH2, the Relative activity, Cyclin A Binding worked out at 0.2.

On to “H-His-Ala-Lys-Nle-Arg-Leu-Ile-Phe-NH2 (peptide)”, for which the Relative activity, Cyclin A Binding was less than 0.1.

For H-HAKRRL[Nva]F-NH2, the Relative activity, Cyclin A Binding was determined as 0.6.

“H-His-Ala-Lys-Arg-Arg-Leu-Ile-L-Pse-OH (peptide)” showed a Relative activity, Cyclin A Binding of 0.2.

In turn, “H-His-Ala-Lys-Hse-Arg-Leu-Ile-Phe-NH2 (peptide)” yielded a Relative activity, Cyclin A Binding of less than 0.1.

Take “H-His-Ala-Lys-Arg-Arg-Leu-Ile-Hof-NH2 (peptide)”: the Relative activity, Cyclin A Binding was less than 0.1.

The substance H-HFKRRLIF-NH2 gave a Relative activity, Cyclin A Binding of 0.2.

For the substance H-HIKRRLIF-NH2, the Relative activity, Cyclin A Binding was 0.2.

“H-His-Ser-Lys-Arg-Arg-Leu-Ile-Pheol (peptide)”: the Relative activity, Cyclin A Binding is less than 0.1.

“H-His-Ala-Lys-Arg-Arg-Leu-Ile-2Nap-NH2 (peptide)” displayed a Relative activity, Cyclin A Binding of 0.7.

In the case of H-HAKRRLI[Phe(3-F)]-NH2, the Relative activity, Cyclin A Binding stood at 0.8.

H-HAKRRLF-NH2 yielded a Relative activity, Cyclin A Binding of less than 0.1.

In turn, “H-His-Ala-Lys-Arg-Sar-Leu-Ile-Phe-NH2 (peptide)” returned a Relative activity, Cyclin A Binding of less than 0.1.

H-HALRRLIF-NH2: the Relative activity, Cyclin A Binding stood at 1.4.

H-HAKRRLIK-NH2 gave a Relative activity, Cyclin A Binding of less than 0.1.

H-HAKRRFIF-NH2 gave a Relative activity, Cyclin A Binding of less than 0.1.

“H-His-Ala-Lys-Arg-Arg-Leu-Ile-D-Pse-OH (peptide)” came in with a Relative activity, Cyclin A Binding of 0.1.

In the case of H-HAKRR[Nva]IF-NH2, the Relative activity, Cyclin A Binding was less than 0.1.

Turning to H-HAARRLIF-NH2, the Relative activity, Cyclin A Binding worked out at 0.5.

In the case of H-HAKRSLIF-NH2, the Relative activity, Cyclin A Binding stood at 0.2.

Take H-HGKRRLIF-NH2: the Relative activity, Cyclin A Binding came to 0.1.

Substance H-HAKRRLI[Cha]-NH2 gave a Relative activity, Cyclin A Binding of less than 0.1.

Regarding H-HAKRRL[Nle]F-NH2, the Relative activity, Cyclin A Binding worked out at 0.3.

Substance H-HAKRRLAF-NH2 displayed a Relative activity, Cyclin A Binding of 0.8.

Substance H-HAKKRLIF-NH2 returned a Relative activity, Cyclin A Binding of 0.1.

The substance H-HAKRRVIF-NH2 showed a Relative activity, Cyclin A Binding of less than 0.1.

Take H-H[Phg]KRRLIF-NH2: the Relative activity, Cyclin A Binding is less than 0.1.

Substance H-HAKRRLIW-NH2 registered a Relative activity, Cyclin A Binding of 0.1.

Substance “H-His-Ala-Lys-Arg-Arg-1Nap-Ile-Phe-NH2 (peptide)” had a Relative activity, Cyclin A Binding of less than 0.1.

A further experiment concerns the target Cyclin A (UniProt P20248). As to the kind of experiment: competitive cyclin A binding ELISA; competitor: immobilised biotinyl-Ahx-HAKRRLIF-NH2; at 100 µM test peptide.
Conditions: not given
A general note: In an ELISA, binding on a coated surface is turned into a signal by an enzyme label.
As for H-Arg-Leu-Ile-Phe-NH2 (peptide), the Maximum Inhibition (%) stood at 50%.

H-Asn-Leu-Phe-Gly-NH2 (peptide) had a Maximum Inhibition (%) of 80%.

The next experiment has as its target Cyclin A (UniProt P20248). As to the kind of experiment: cyclin A binding assay, IC50 (immobilised ligand not given).
Conditions: not given
Substance Ac-Arg-Arg-Leu-Asn-Phe-NH2 (peptide) gave a pIC50 of 5.09.

A further experiment has as its target Cyclin D1 (UniProt P24385). As to the kind of experiment: competitive ELISA: cyclin D1 binding to immobilised biotinyl-Ahx-p21(149-159).
Conditions: not given
“P21 N-terminus-LIF hybrid KAURRLIF-NH2 (peptide)” showed a pIC50 of 4.70.

Take “P27 peptide H-Ser-Ala-Abu-Arg-Asn-Leu-Phe-Gly-NH2”: the negative logarithm of the IC50 (pIC50) was less than 3.70.

For the substance P21 N-terminus peptide KAURRLFG-NH2, the pIC50 is 3.87.
